The values below come from publication PMC6476560 (PLoS ONE, 2019).

Experiment in all cases: MST
The target of test [1] is fluorescently labelled Dop (deamidase of Pup; depupylase) (UniProt P9WNU9).
Test [2] addresses fluorescein-labelled wild-type MtbMpa (Mycobacterium tuberculosis) (UniProt P9WQN5).
Test [3] concerns the target T1, fluorescein-labelled wild-type MtbMpa (Mycobacterium tuberculosis, UniProt P9WQN5 1-609).
T1 sequence: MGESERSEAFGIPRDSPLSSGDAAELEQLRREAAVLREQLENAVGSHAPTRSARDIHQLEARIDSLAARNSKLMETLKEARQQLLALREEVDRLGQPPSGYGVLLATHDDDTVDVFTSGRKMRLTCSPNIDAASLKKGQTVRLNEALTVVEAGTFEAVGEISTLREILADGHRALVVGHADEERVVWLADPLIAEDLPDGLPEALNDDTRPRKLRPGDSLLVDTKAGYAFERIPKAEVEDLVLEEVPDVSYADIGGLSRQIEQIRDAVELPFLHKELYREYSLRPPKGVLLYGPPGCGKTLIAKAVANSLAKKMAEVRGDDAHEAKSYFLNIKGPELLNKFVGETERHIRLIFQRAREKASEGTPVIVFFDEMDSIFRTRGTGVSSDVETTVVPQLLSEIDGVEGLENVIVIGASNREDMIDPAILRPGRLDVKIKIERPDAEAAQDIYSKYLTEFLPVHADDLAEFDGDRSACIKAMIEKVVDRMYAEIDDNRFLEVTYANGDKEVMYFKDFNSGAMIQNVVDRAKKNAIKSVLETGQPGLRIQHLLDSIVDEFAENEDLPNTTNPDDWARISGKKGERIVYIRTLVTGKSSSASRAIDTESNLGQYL
The following applies: both partners purified.

The target of test [4] is T2, Pup-MSMEG_5049 (pupylated 2-oxoglutarate dehydrogenase E1 of M. smegmatis) (Mycobacterium smegmatis | Mycobacterium …, UniProt A0R2B1;P9WHN5, PupE (C-terminal glutamine as glutamate)).
T2 construct: copies: 2 + 1
T2 sequence 1: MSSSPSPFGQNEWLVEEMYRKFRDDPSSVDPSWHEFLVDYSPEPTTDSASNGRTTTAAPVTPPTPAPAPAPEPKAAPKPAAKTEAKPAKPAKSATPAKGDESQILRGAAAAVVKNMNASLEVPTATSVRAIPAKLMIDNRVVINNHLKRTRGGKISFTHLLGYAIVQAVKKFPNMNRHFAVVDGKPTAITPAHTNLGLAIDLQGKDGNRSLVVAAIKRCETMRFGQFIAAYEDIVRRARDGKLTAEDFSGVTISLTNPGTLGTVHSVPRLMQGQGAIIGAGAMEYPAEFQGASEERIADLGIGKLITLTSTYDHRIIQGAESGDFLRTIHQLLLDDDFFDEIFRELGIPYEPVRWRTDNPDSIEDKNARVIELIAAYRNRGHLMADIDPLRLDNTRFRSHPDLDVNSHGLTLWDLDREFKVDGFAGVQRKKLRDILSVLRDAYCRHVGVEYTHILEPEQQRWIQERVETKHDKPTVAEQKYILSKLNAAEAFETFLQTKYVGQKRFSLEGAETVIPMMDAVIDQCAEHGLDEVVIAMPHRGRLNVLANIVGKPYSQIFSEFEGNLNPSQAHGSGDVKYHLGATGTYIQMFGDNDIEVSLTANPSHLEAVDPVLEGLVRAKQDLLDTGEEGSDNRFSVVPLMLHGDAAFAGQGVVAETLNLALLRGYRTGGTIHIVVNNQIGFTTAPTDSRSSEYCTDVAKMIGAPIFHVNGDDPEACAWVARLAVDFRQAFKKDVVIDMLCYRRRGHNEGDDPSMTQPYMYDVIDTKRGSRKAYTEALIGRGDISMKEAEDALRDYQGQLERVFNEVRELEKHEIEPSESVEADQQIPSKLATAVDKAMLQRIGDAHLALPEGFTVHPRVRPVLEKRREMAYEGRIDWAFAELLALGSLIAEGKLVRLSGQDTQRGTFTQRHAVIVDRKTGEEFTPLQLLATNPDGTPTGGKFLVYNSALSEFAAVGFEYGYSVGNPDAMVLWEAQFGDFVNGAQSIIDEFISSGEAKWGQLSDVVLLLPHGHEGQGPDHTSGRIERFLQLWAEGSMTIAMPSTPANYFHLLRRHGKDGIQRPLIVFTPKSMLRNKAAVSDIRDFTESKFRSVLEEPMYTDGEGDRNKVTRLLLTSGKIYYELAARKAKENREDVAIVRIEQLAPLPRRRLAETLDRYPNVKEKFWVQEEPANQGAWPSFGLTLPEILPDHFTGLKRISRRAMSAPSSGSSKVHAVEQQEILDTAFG
T2 sequence 2: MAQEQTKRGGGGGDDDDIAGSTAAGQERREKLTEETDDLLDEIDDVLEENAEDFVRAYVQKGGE
The following applies: both partners purified.

Test [5] addresses T3, Pup-MSMEG_1807 (pupylated alpha-chain of propionyl-CoA carboxylase of M. smegmatis) (Mycobacterium smegmatis | Mycobacterium …, UniProt A0QTE1 1-598; P9WHN5 1-64, PupE (C-terminal glutamine as glutamate)).
T3 construct: copies: 2 + 1
The note with it: both partners purified.

Molecule “Pup-MSMEG_2412 (pupylated pyruvate carboxylase of M. smegmatis) (from UniProt P9WHN5 1-64) (complex)” displayed a Kd in test [1] of 114 nM.

Consider “Pup-FabD3KR (pupylated malonyl transacylase FabD, triple lysine-to-arginine variant) (from UniProt P9WNG5;P9WHN5) (complex)”, for which, in test [2], the Kd came out at 240 nM.

B1: MtbPupE (prokaryotic ubiquitin-like protein Pup with C-terminal glutamate), free (natural protein)
chain: T2 sequence 2
B1 had a Kd in test [3] of 3310 ± 650 nM.

B2: fluorescently labelled Dop (deamidase of Pup; depupylase) (enzyme)
chain: MQRIIGTEVEYGISSPSDPTANPILTSTQAVLAYAAAAGIQRAKRTRWDYEVESPLRDARGFDLSRSAGPPPVVDADEVGAANMILTNGARLYVDHAHPEYSAPECTDPLDAVIWDKAGERVMEAAARHVASVPGAAKLQLYKNNVDGKGASYGSHENYLMSRQTPFSAIITGLTPFLVSRQVVTGSGRVGIGPSGDEPGFQLSQRSDYIEVEVGLETTLKRGIINTRDEPHADADRYRRLHVIIGDANLAETSTYLKLGTTALVLDLIEEGPAHAIDLTDLALARPVHAVHAISRDPSLRATVALADGRELTGLALQRIYLDRVAKLVDSRDPDPRAADIVETWAHVLDQLERDPMDCAELLDWPAKLRLLDGFRQRENLSWSAPRLHLVDLQYSDVRLDKGLYNRLVARGSMKRLVTEHQVLSAVENPPTDTRAYFRGECLRRFGADIAAASWDSVIFDLGGDSLVRIPTLEPLRGSKAHVGALLDSVDSAVELVEQLTAEPR
In the case of B2, the results for the Kd in test [4] and in test [5] were 121 ± 28 nM and 339 ± 55 nM, respectively.

The term Kd denotes the free concentration of one partner at which half of the binding sites on the other are occupied at equilibrium, for simple one-to-one binding. Low values mean a tighter complex, high ones a looser complex.
